In publication PMC8528721, “Hop2 interacts with the transcription factor CEBPα and suppresses adipocyte differentiation” (The Journal of Biological Chemistry, 2021):

B1: hemagglutinin (HA)-tagged Hop2 (natural protein, UniProt O35047 1-217, looked up)
chain: MSKSRAEAAAGAPGIILRYLQEQNRPYSAQDVFGNLQKEHGLGKAAVVKALDQLAQEGKIKEKTYGKQKIYFADQNQFDTVSDADLHGLDASIVALTAKVQSLQQSCRHMEAELKELTSALTTPEMQKEIQELKKECAQYTERLKNIKAATNHVTPEEKEKVYRDRQKYCKEWRKRKRMTTELCDAILEGYPKSKKQFFEEVGIETDEDHNVLLPDP
B2: CEBP consensus palindrome probe (dsDNA)
DNA 1: GATCTGCAGATTGCGCAATCTGCA
DNA 2: GATCTGCAGATTGCGCAATCTGCA

What was measured:
[1] = biological target: T1, CEBPδ in nuclear extracts of COS1 cells (UniProt Q00322 1-268); assay: cell-based or functional assay
T1 sequence (looked up): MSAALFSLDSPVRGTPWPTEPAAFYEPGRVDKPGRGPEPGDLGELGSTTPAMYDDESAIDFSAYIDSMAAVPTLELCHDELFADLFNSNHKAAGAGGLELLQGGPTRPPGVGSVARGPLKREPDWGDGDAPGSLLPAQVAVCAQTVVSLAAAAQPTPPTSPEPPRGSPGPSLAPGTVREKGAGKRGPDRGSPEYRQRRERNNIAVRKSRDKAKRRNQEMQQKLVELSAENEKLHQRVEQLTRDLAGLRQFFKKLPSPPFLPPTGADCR

Flag-tagged CEBPα = Flag-tagged CEBPα (UniProt P53566 1-359); assay: cell-based or functional assay
Sequence of Flag-tagged CEBPα (P53566 whole entry): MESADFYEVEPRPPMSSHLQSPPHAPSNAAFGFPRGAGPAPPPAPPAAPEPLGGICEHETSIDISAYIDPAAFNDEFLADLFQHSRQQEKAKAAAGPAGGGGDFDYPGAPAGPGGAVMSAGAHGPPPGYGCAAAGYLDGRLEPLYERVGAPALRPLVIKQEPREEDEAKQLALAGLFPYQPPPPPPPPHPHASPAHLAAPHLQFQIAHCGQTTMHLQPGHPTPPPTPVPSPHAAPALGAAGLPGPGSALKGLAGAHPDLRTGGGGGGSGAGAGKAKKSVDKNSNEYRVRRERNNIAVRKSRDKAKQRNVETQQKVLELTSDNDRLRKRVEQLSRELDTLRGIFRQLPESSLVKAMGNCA

[2] = biological target: T2, endogenous CEBPβ (CCAAT enhancer binding protein beta) (mouse (endogenous in mouse visceral …, UniProt P28033-1 1-296)); assay: cell-based or functional assay
T2 sequence (looked up): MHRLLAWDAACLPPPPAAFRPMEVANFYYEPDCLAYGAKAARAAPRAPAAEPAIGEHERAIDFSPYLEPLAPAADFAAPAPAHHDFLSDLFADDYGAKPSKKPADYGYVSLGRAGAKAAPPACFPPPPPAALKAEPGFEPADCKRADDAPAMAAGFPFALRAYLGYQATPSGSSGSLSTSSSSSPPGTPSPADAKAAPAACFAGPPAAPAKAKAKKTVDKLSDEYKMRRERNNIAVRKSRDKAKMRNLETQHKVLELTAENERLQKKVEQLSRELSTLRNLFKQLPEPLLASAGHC

His-CEBPα = His-CEBPα (UniProt P53566 1-359); assay: EMSA; no Hop2; EMSA: 5 pmol probe, room temperature, 10 min; buffer, salt and pH not given (refs 36, 55); conditions: protein: recombinant; tags: His; chain copies: 2; label: 32P; self-annealed, two copies of the strand; 20 bp duplex with 5' overhang 4 nt (GATC) at both ends
Sequence of His-CEBPα (P53566 whole entry): as the sequence (P53566 whole entry) above

Row | Binder | C3-Luc reporter activity in COS1 cells cotransfected with CEBPδ and Hop2 (5.7-fold brought down to 2.2-fold) [1] [% suppression] | Leptin-Luc reporter activity in COS1 cells cotransfected with CEBPδ and Hop2 (31.9- to 1.4-fold) [1] [% inhibition] | C3-Luc reporter activity in COS1 cells cotransfected with CEBPα and Hop2 (6.1-fold brought down to 1.6-fold) (Flag-tagged CEBPα) [% suppression] | Leptin-Luc reporter activity in COS1 cells cotransfected with CEBPα and Hop2 (35.7- to 12.2-fold) (Flag-tagged CEBPα) [% inhibition] | C3-Luc reporter activity in COS1 cells cotransfected with CEBPβ and Hop2 (4.5-fold brought down to 3.1-fold) [2] [% suppression] | Leptin-Luc reporter activity in COS1 cells cotransfected with CEBPβ and Hop2 (21.0- to 1.7-fold) [2] [% inhibition] | binding result (His-CEBPα)
1 | B1 | 61 | 97 | 74 | 66 | 31 | 92 | –
2 | B2 | – | – | – | – | – | – | binds
